Assay results reported in publication PMC11045668 (Nature chemical biology, 2023).

Molecular target: the molecule itself
Assay: SEC

B1: soluble transhydrogenase from E. coli (EcSTH), recombinant, with N-terminal Hisx6-tag and C-terminal FLAG-tag (enzyme, Escherichia coli, UniProt P27306 1-466, looked up)
chain: MPHSYDYDAIVIGSGPGGEGAAMGLVKQGARVAVIERYQNVGGGCTHWGTIPSKALRHAVSRIIEFNQNPLYSDHSRLLRSSFADILNHADNVINQQTRMRQGFYERNHCEILQGNARFVDEHTLALDCPDGSVETLTAEKFVIACGSRPYHPTDVDFTHPRIYDSDSILSMHHEPRHVLIYGAGVIGCEYASIFRGMDVKVDLINTRDRLLAFLDQEMSDSLSYHFWNSGVVIRHNEEYEKIEGCDDGVIMHLKSGKKLKADCLLYANGRTGNTDSLALQNIGLETDSRGQLKVNSMYQTAQPHVYAVGDVIGYPSLASAAYDQGRIAAQALVKGEATAHLIEDIPTGIYTIPEISSVGKTEQQLTAMKVPYEVGRAQFKHLARAQIVGMNVGTLKILFHRETKEILGIHCFGERAAEIIHIGQAIMEQKGGGNTIEYFVNTTFNYPTMAEAYRVAALNGLNRLF
- stoichiometry N: 12
